Test results published in the supplement of paper PMC10567573.

B1: ANKRD40 (parent)
chain: YQELLRVCCCELGVNPDQVEKIRK

Variants of: B1
Experiment: protein stability index of a GFP-peptide fusion (GPS, HEK-293T) (PSI 1-6); higher = more stable
Settings: c terminus: a fixed tail appended
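Note: lentivirally expressed fusions sorted by FACS into six bins by GFP to DsRed ratio, PSI derived from sequencing read proportions per bin multiplied by bin number.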

Variant | protein stability index
E11M | 2.03
E11S | 1.22
E11Y | 1.27
E11V | 1.56
E11W | 1
E11R | 1.32
E11A | 1.32
E11I | 1.49
E11N | 1.76
E11K | 2.89
E11T | 1.98
E11P | 1.94
E11D | 1.89
E11G | 1.86
E11H | 1.79
E11L | 2
E11C | 2.62
E11F | 2.19
G13R | 1.66
G13Q | 1.57
G13H | 1.79
G13W | 2.84
G13A | 2.08
G13F | 1.55

Variant | protein stability index
G13E | 2.42
G13C | 1.63
G13N | 1.78
G13I | 1.78
G13Y | 1.05
G13T | 2.13
G13K | 1.62
G13D | 2.19
G13S | 3.16
G13V | 1.71
G13L | 1.62
G13P | 2.06
G13M | 2.01
Q2F | 1.44
Q2Y | 1.86
Q2K | 2.5
Q2I | 1.73
Q2P | 2.08
Q2S | 1.57
Q2C | 1.64
Q2L | 1.51
Q2G | 2.08
Q2R | 2.58
Q2W | 1.67

Variant | protein stability index
Q2E | 2.98
Q2M | 1.76
Q2N | 2.52
Q2H | 1.77
Q2D | 2.47
Q2A | 1.94
K21V | 2.54
K21L | 1.05
K21D | 1.66
K21F | 2.97
K21C | 1.82
K21A | 2.02
K21H | 1.49
K21P | 1
K21N | 1.85
K21R | 2.12
K21G | 1.82
K21E | 2.4
K21I | 1.81
Q18M | 2.02
Q18S | 2.08
Q18E | 2.13
Q18I | 1.89
Q18P | 1.4

Variant | protein stability index
Q18G | 2.02
Q18A | 1.32
Q18V | 1.8
Q18T | 2.16
Q18F | 1.01
Q18L | 1.67
Q18D | 2.73
Q18N | 2.32
Q18H | 1.48
Q18C | 1.52
Q18Y | 1.19
E20T | 1.47
E20P | 1.66
E20A | 1.97
E20M | 1.85
E20R | 1.96
E20S | 1.31
E20N | 1.99
E20C | 1.56
E20L | 2.4
E20Q | 1.75
E20K | 1.96
E20H | 1.26
E20D | 2.94

Variant | protein stability index
E20V | 1.99
E20I | 3.43
E3P | 2.21
E3A | 1.52
E3S | 2.26
E3K | 1.96
E3M | 1.64
E3F | 1.76
E3Y | 1.66
E3Q | 1.59
E3R | 1.21
E3H | 2.01
E3D | 1.59
E3T | 2.13
E3I | 1.57
E3N | 2.09
N15F | 1.45
N15L | 1.39
N15M | 2.21
N15C | 1.63
N15D | 2.08
N15H | 2.75
N15S | 2.1
N15A | 1.96

Variant | protein stability index
N15K | 2.08
N15R | 2.21
N15G | 1.26
N15Q | 1.62
N15P | 2.8
N15Y | 1.78
N15E | 2.27
N15I | 1.37
N15T | 3.74
D17C | 2.01
D17M | 1.56
D17K | 1.69
D17L | 1.59
D17Q | 2.94
D17Y | 2.01
D17I | 1.69
D17G | 2.42
D17N | 2.11
D17F | 1.87
D17R | 2.04
D17T | 2.42
D17W | 2.12
D17S | 2.4
D17V | 2.73

Variant | protein stability index
V7N | 1.96
V7G | 1.48
V7P | 2.5
V7L | 1.46
V7F | 1.61
V7R | 1.41
V7E | 2.28
V7C | 2.1
V7Q | 1.97
V7A | 2.15
V7D | 2.53
V7I | 2.03
V7Y | 1.79
V7H | 2.59
V7K | 2.23
V19A | 1.79
V19Y | 2.26
V19D | 1.66
V19I | 2.25
V19K | 2.68
V19S | 1.66
V19E | 2.51
V19C | 2.1
V19Q | 2.29

Variant | protein stability index
V19G | 1.64
V19P | 2.19
V19L | 2.2
V19F | 2.19
V19W | 1.75
V19R | 1.6
V19M | 2.37
V19H | 2.27
V19N | 1.34
L12Y | 2.24
L12D | 2.64
L12H | 1.88
L12W | 1.65
L12M | 2.05
L12C | 2.03
L12I | 2.21
L12K | 2.49
L12S | 2.15
L12G | 2.31
L12R | 1.7
L12Q | 2.81
L12E | 2.75
L12F | 2.21
L12A | 1.78

Variant | protein stability index
L12V | 1.64
L12N | 2.86
L12P | 2.55
V14S | 2.32
V14Y | 2.13
V14D | 2.88
V14E | 2.72
V14F | 2.27
V14H | 2.22
V14R | 1.5
V14A | 1.99
V14N | 1.85
V14Q | 1.72
V14P | 2.02
V14T | 1.99
V14L | 2.18
V14I | 1.61
V14M | 2.07
V14C | 2.08
C9D | 3.15
C9K | 2.23
C9G | 3.22
C9I | 1.06
C9Y | 2.66

Variant | protein stability index
C9H | 2.15
C9R | 2.31
C9L | 1.55
C9E | 2.35
C9W | 2.23
C9P | 2.59
C9S | 2.14
C9V | 1.82
C9N | 2.15
C9Q | 2.27
C9F | 3.38
C9M | 1.81
C9A | 2.61
C9T | 2.23
Y1K | 1.96
Y1T | 2.53
Y1R | 2.16
Y1I | 1.78
Y1P | 1.6
Y1Q | 3.28
Y1H | 3.27
Y1L | 1.51
Y1M | 2.29
Y1S | 2.65

Variant | protein stability index
Y1W | 1.29
Y1N | 3.55
Y1V | 1.15
L5D | 3.26
L5M | 2.41
L5A | 2.5
L5K | 2.37
L5N | 1.99
L5I | 1.77
L5Q | 3.04
L5H | 2.18
L5G | 2.05
L5T | 1.91
L5C | 3.06
L5P | 1.75
L4M | 1.82
L4Q | 2.42
L4Y | 2.38
L4I | 2.58
L4S | 2.27
L4K | 2.94
L4N | 2.55
L4H | 3
L4D | 3.98

Variant | protein stability index
L4C | 2.15
L4E | 3.05
L4T | 2.53
L4A | 2.63
L4R | 1.79
R6N | 2.26
R6F | 1.78
R6S | 2.03
R6D | 2.56
R6H | 2.11
R6E | 2.36
R6G | 2.23
R6P | 2.02
R6L | 1.74
R6M | 1.73
R6Q | 2.26
R6W | 1.58
R6I | 1.49
R6C | 1.92
R6Y | 2.18
R6A | 2.02
R6K | 1.91
R6T | 1.54
P16T | 1.29

Variant | protein stability index
P16K | 2.26
P16M | 1.5
P16D | 2.86
P16C | 2.52
P16Y | 1.99
P16R | 2.41
P16H | 1.43
P16F | 1.14
P16I | 1.52
P16E | 2.14
P16A | 1.81
P16L | 2.11
P16S | 2.06
P16N | 2.4
P16Q | 2.5
C10L | 1.86
C10I | 1.63
C10R | 2.35
C10F | 1.68
C10W | 1.81
C10G | 2.22
C10H | 2.63
C10V | 2.1
C10T | 2.04

Variant | protein stability index
C10Q | 2.92
C10P | 2.31
C10S | 2.24
C10M | 2.08
C8D | 3.81
C8I | 2.38
C8L | 2.24
C8W | 2.02
C8S | 3.33
C8T | 3.53
C8N | 3.48
C8H | 2.84
C8M | 2.09
C8A | 3.16
C8E | 3.56
C8K | 2.19
C8Y | 2.09
C8R | 2.21
C8Q | 3.52
C8F | 1.44
C8G | 2.8
C8P | 2.12
